This data set addresses thrombin (UniProt P00734;P00734 328-363;364-622). Description: fluorescence turn-on (FRET Pdots to BHQ-aptamer); 130 nM thrombin, Pdots present; F/F0 = 6.5; Buffer, salt and pH not given in the material (Hepes listed as reagent); incubation 60 min; Pdots-BHQ-TBA quenching plot at 298 K.

This note sets out measurements from PMC5855441, “Detection of Thrombin Based on Fluorescence Energy Transfer between Semiconducting Polymer Dots and BHQ-Labelled Aptamers”.

B1: BHQ-TBA (BHQ-labelled thrombin aptamer) (ssDNA)
DNA: GGTTGGTGTGGTTGG
For B1, the binding result is “binds”.
